According to patent US20190194358A1 (ARIZONA BOARD OF REGENTS A BODY CORPORATE OF THE STATE OF …, published 2019):
Ends that are not written are not given here.

Assays:
GRP58 = target: T1, GRP58 (human, UniProt P30101 25-505, limits assumed); experiment: human protein microarray (Protoarray), fluorescence intensity
T1 construct: GST fusion adsorbed on a nitrocellulose slide
T1 sequence (looked up): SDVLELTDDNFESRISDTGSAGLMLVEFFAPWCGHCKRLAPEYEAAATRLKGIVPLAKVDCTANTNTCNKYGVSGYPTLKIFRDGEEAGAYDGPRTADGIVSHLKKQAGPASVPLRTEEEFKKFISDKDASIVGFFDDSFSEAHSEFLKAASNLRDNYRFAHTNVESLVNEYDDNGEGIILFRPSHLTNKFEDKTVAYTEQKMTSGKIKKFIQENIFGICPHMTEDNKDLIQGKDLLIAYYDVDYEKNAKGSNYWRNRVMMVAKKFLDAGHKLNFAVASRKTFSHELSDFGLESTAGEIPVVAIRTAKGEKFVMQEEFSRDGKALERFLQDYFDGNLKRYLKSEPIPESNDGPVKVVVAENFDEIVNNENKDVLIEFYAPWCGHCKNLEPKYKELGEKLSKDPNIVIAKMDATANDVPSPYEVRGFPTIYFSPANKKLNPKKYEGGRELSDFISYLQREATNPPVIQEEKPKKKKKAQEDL
Experimental: (§1) The prescribed cover slip was placed over the array and adjusted to remove air bubbles. The array was incubated in a 50 ml conical tube, printed side up, for 1.5 hours at 4 C without shaking. The array was then removed from the conical tube inserted diagonally into the array chamber, kept on ice. 8 ml probing buffer was added to the chamber wall. The cover slip was removed and the array was incubated in probing buffer for 1 minute on ice. The probing buffer was decanted and drained. Two further washings were performed adding 8 ml probing buffer, incubating on ice for 1 minute, and decanting and draining. 5 nM fluorescently labeled streptavidin diluted in 6 ml probing buffer was incubated on the array for 30 minutes on ice in the dark, after which the solution was decanted and drained. Three wash steps were performed, each by adding 8 ml probing buffer, incubating for 1 minute on ice, decanting, and draining. The array was removed from the chamber, centrifuged at 800×g for 5 minutes at room temperature. The array was dried in the dark for 60 minutes at room temperature, after which it was scanned using a fluorescent microarray scanner and data was taken and analyzed.

Fbox-21 = target: T2, Fbox-21 (human, UniProt O94952 1-628); experiment: as above
T2 construct: GST fusion adsorbed on a nitrocellulose slide
T2 sequence (looked up): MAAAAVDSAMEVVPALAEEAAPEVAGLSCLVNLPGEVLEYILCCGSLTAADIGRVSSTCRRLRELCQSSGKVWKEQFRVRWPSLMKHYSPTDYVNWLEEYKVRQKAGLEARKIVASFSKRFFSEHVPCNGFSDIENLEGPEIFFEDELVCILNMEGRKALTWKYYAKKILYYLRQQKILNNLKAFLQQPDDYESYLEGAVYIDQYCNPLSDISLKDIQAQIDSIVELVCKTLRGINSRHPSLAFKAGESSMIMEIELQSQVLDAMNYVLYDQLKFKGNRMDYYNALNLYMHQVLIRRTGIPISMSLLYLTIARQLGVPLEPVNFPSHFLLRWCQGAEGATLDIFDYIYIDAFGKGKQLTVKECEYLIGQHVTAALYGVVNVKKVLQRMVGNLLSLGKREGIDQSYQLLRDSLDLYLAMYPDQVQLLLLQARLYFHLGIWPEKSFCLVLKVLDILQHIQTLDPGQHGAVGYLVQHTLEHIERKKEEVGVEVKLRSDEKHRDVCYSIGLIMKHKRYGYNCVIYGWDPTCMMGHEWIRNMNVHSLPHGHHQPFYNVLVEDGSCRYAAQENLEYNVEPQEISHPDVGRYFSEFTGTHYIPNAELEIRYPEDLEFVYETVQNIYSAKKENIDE
Experimental: as §1

MCCC1 = target: T3, MCCC1 (human, UniProt Q96RQ3); experiment: Invitrogen ProtoArray Human Protein Microarray v4.0; biotinylated synbody, fluorescently labelled streptavidin; fluorescence intensity above background
T3 construct: GST fusion on the array
T3 sequence (looked up): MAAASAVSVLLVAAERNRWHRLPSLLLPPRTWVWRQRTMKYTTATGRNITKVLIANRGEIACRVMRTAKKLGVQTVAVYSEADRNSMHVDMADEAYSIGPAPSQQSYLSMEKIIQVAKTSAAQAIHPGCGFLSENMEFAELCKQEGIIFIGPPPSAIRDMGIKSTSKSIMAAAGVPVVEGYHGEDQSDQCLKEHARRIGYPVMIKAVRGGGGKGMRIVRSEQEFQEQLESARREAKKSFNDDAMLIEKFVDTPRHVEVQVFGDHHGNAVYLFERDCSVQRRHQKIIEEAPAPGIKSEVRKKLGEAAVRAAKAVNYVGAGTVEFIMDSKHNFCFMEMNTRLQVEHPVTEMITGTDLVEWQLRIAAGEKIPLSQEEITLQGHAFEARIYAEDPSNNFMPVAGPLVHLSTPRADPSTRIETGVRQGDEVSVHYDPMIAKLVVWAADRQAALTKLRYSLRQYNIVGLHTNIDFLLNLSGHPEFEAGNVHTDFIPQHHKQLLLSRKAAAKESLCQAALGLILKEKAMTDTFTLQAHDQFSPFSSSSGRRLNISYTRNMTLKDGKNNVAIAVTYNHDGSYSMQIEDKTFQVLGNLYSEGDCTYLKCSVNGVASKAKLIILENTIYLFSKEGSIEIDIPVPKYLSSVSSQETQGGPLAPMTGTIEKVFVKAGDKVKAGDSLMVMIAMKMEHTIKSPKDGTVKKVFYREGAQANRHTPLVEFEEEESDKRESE
Experimental: as §1

CHAF1B = target: T4, CHAF1B (human, UniProt Q13112); experiment: as above
T4 construct: GST fusion on the array
T4 sequence (Q13112 whole entry, the tested form may be a part): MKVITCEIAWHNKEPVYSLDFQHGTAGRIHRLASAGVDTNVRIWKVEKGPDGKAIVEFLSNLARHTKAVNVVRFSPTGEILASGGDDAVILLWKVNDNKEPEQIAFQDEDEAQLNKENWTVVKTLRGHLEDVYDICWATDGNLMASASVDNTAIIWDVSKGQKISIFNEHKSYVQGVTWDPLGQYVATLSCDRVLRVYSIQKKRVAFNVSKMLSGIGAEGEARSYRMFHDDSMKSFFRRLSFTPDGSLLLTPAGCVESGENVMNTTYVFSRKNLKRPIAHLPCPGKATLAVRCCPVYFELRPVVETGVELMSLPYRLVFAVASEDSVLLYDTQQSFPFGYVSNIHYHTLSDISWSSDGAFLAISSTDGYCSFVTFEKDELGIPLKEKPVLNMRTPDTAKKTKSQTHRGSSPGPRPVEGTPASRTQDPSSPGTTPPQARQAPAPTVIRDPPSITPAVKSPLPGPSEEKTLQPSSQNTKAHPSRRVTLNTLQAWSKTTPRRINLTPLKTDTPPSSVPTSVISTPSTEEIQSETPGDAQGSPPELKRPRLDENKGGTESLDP
Experimental: as §1

ACTC = target: T5, ACTC (human, UniProt P68032); experiment: as above
T5 construct: GST fusion on the array
Experimental: as §1

CLEC1 = target: T6, CLEC1 (human, UniProt Q8NC01); experiment: as above
T6 construct: GST fusion on the array
T6 sequence (looked up): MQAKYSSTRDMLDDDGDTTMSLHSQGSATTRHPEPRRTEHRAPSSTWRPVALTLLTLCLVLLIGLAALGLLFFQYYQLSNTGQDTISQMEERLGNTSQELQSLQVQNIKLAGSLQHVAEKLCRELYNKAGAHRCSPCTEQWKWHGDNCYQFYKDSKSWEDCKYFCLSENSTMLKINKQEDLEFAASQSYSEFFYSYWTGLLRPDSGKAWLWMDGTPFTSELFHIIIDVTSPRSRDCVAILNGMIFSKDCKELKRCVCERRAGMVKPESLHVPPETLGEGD
Experimental: as §1

HTN1 = target: T7, HTN1 (human, UniProt P15515, limits assumed); experiment: as above
T7 construct: GST fusion on the array
T7 chain (looked up): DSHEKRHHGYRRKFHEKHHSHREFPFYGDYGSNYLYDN
Experimental: as §1

Measured: binding result

B1: SYN23-26 (designed binder)
peptide 1: AHKVVPQRQIRHAYNRYGSG
peptide 2: FRGWAHIFFGPHVIYRGGSG
modifications: also: two chains joined by their C-termini to a branching Lys (epsilon/alpha N), Lys linker followed by Cys, Cys thiol biotinylated
notes: Lysine linker followed by cysteine; the thiol of the cysteine biotinylated for the protein array; also called anti-TRF synbody
binds: GRP58 | Fbox-21 | MCCC1 | CHAF1B | ACTC | CLEC1 | HTN1
